Laboratory results published in article PMC4156074.

How the values were obtained:
[1] = target: Full-length human plasma kallikrein, activated form (human) (UniProt P03952)
[2] = target: Full-length human plasma kallikrein, activated form (human) (UniProt P03952); experiment: enzyme inhibition (steady state, tight-binding fit); DX-2930 IgG (up to 10 nM, 1.5-fold dilutions) incubated 1 h at 30 °C with 1 nM pKal, free or preincubated with 600 nM 2-chain HMWK, in 20 mM Tris-HCl pH 7.5, 150 mM NaCl, 1 mM EDTA, 0.1% PEG-8000, 0.1% Triton X-100; substrate H-Pro-Phe-Arg-AMC at 10, 50 or 100 uM; Ki from Ki app by Equation 2, averaged
[3] = target: pKal from cynomolgus monkey plasma (cynomolgus monkey); experiment: enzyme inhibition (steady state, tight-binding fit); DX-2930 on purified pKal of mouse, rat, rabbit and cynomolgus monkey; apparent; data not shown

Sequence of Full-length human plasma kallikrein, activated form (human) (P03952 20-390, chain 1 of 2): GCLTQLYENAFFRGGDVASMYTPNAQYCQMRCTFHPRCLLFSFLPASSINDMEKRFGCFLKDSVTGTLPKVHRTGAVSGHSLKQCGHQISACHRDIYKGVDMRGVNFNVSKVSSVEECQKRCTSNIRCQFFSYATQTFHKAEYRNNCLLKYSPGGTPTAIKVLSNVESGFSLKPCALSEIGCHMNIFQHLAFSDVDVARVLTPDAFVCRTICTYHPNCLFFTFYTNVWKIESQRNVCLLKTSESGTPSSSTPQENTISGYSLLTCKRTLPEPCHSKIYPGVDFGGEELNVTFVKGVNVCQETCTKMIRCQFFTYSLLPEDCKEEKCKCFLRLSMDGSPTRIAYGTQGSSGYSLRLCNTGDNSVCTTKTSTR
Sequence of Full-length human plasma kallikrein, activated form (human) (P03952 391-638, chain 2 of 2): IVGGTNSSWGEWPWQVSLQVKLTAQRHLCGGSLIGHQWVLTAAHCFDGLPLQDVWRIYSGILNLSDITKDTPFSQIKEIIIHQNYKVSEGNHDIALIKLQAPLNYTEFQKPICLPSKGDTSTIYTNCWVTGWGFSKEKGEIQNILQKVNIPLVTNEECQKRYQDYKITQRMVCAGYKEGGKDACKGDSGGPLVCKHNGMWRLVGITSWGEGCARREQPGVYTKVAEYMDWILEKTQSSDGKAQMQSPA

release of bradykinin from 1-chain HMWK (20 nM) by pKal (0.15 nM) after 1 h with DX-2930, bradykinin ELISA; blocks the proteolysis of HMWK by pKal [1]: 1.3 nM | Ki [2]: 0.12 nM | Ki [3]: 0.07 nM
B1: DX-2930, fully human IgG1 monoclonal antibody (antibody, V domains shown)
VH: EVQLLESGGGLVQPGGSLRLSCAASGFTFSHYIMMWVRQAPGKGLEWVSGIYSSGGITVYADSVKGRFTISRDNSKNTLYLQMNSLRAEDTAVYYCAYRRIGVPRRDEFDIWGQGTMVTVSS
VL: DIQMTQSPSTLSASVGDRVTITCRASQSISSWLAWYQQKPGKAPKLLIYKASTLESGVPSRFSGSGSGTEFTLTISSLQPDDFATYYCQQYNTYWTFGQGTKVEIK
